Data published in the supplement of paper PMC6757056.
± gives the standard deviation of the averaged measurements.

B1: library; a variant is named by its letters at N, in order (parent)
chain: GCUGUCACCGGAAUACCAGCAUCGUCUUGAUGCCCUUGGAAGUCCGGUCUGAUGAGUCCNNNNNGGACGAAACAGC

What was measured:
theophylline [1] = variants of: B1; assay: FACS-Seq fitted mean relative fluorescence mCherry/BFP without ligand (log10 relative fluorescence); higher = higher reporter protein expression; conditions: HEK293T, ligand present: no
How it was run: (§1)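 After lentiviral transduction, HEK293T library cells bearing an mCherry ribozyme-switch reporter and an EF1α-BFP marker were enriched. They were then held for 48 h with or without ligand and sorted by mCherry/BFP into 6 bins, and each bin's genomic DNA was PCR-amplified, barcoded and MiSeq-sequenced. Fluorescence is expressed as a normalized fitted mean: the normal mean of log10(mCherry/BFP) bin counts, scaled to five spiked-in control ribozymes.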

theophylline [2] = variants of: B1; assay: normalized RNA/DNA level with ligand (relative to sTRSVctl = 100) (log10 (% of sTRSVctl)); higher = less ribozyme self-cleavage, higher mRNA level; conditions: ligand concentration (+) RNA-Seq: 5 mM, HEK293T, reporter: mCherry (pCS4076), ligand present: yes
How it was run: (§2)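 RNA level was computed as RNA reads over DNA reads divided by a spiked-in non-cleaving sequence or by the top sequences, then scaled and log-transformed. Scaling was ×100 with log10, the top group was 25 sequences, and the threshold was ≥100 DNA reads. The reads came from HEK293T cells transfected at 4 µg per 6-well well with ribozyme switch library plasmids (mCherry, or eGFP in some ligand experiments). Total RNA was extracted with EDTA 72 h after transfection, with any ligand added 1 h before it.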

theophylline [3] = variants of: B1; assay: normalized RNA/DNA level without ligand (relative to sTRSVctl = 100) (log10 (% of sTRSVctl)); higher = less ribozyme self-cleavage, higher mRNA level; conditions: HEK293T, reporter: mCherry (pCS4076), ligand present: no
How it was run: as §2

theophylline [4] = variants of: B1; assay: FACS-Seq fitted mean relative fluorescence mCherry/BFP with ligand (log10 relative fluorescence); ligand concentration (+) FACS-Seq: 1 mM; higher = higher reporter protein expression; conditions: HEK293T, ligand present: yes
How it was run: as §1

Variant | FACS-Seq fitted mean (log10) (theophylline [1]) | normalized RNA/DNA level with ligand (log10) (theophylline [2]) | normalized RNA/DNA level without ligand (log10) (theophylline [3]) | FACS-Seq fitted mean (log10) (theophylline [4])
GUCUG | 0.742 ± 0.06 | 1.96 ± 0.074 | 1.87 ± 0.11 | 0.898 ± 0.069
AAAAA | -0.362 ± 0.072 | 1.85 ± 0.075 | 1.11 ± 0.061 | 0.356 ± 0.066
AUCGU | 0.902 ± 0.057 | 2.03 ± 0.13 | 1.93 ± 0.042 | 0.848 ± 0.063
AUCGA | 0.863 ± 0.17 | 2.02 ± 0.087 | 1.76 ± 0.19 | 0.825 ± 0.13
CAGAC | 0.2 ± 0.032 | 2.04 ± 0.028 | 1.9 ± 0.086 | 0.0728 ± 0.14
UUGCC | 0.794 ± 0.064 | 1.99 ± 0.067 | 1.95 ± 0.021 | 0.78 ± 0.06
ACUGA | 0.423 ± 0.012 | 1.96 ± 0.19 | 1.68 ± 0.18 | 0.613 ± 0.023
CACCA | 0.7294 ± 0.00094 | 1.97 ± 0.083 | 1.8 ± 0.071 | 0.792 ± 0.053
UAACA | 0.606 ± 0.025 | 1.99 ± 0.066 | 1.55 ± 0.053 | 0.813 ± 0.024
AAGCG | 0.683 ± 0.068 | 2 ± 0.075 | 1.96 ± 0.067 | 0.7793 ± 0.0014
CAUUC |  | 2.07 ± 0.066 | 1.92 ± 0.099 | 
ACACU | 0.829 ± 0.042 | 2.04 ± 0.094 | 1.85 ± 0.14 | 0.802 ± 0.071
ACACC | 0.952 ± 0.087 | 1.99 ± 0.12 | 2 ± 0.022 | 1.11 ± 0.06
AUUCA | 0.9176 ± 0.0013 | 2.04 ± 0.066 | 1.83 ± 0.15 | 0.971 ± 0.12
UCUAU | 0.822 ± 0.091 | 2.051 ± 0.0076 | 1.867 ± 0.015 | 0.994 ± 0.05
CCAGU | 0.937 ± 0.067 | 1.974 ± 0.0042 | 1.9 ± 0.12 | 0.929 ± 0.058
CCAGA | 0.765 ± 0.044 | 1.95 ± 0.15 | 1.86 ± 0.098 | 0.758 ± 0.085
UUUAA | 0.514 ± 0.017 | 2.05 ± 0.08 | 1.69 ± 0.019 | 0.695 ± 0.019
CCCAA | 0.563 ± 0.0093 | 2.012 ± 0.0096 | 1.82 ± 0.13 | 0.684 ± 0.021
UGCGA | 0.439 ± 0.02 | 1.9 ± 0.039 | 1.58 ± 0.06 | 0.659 ± 0.03
AGGCA | 0.779 ± 0.085 | 1.99 ± 0.039 | 1.79 ± 0.057 | 0.896 ± 0.1
AACGA | 0.235 ± 0.038 | 1.96 ± 0.1 | 1.53 ± 0.17 | 0.536 ± 0.026
AUUGC | 1.19 ± 0.033 | 2.0706 ± 0.0016 | 2.01 ± 0.087 | 1.02 ± 0.1
UGGCU | 1.01 ± 0.063 | 2.01 ± 0.022 | 1.948 ± 0.011 | 0.992 ± 0.099
UUUGC |  | 2.05 ± 0.042 | 1.93 ± 0.023 | 

Variant | FACS-Seq fitted mean (log10) (theophylline [1]) | normalized RNA/DNA level with ligand (log10) (theophylline [2]) | normalized RNA/DNA level without ligand (log10) (theophylline [3]) | FACS-Seq fitted mean (log10) (theophylline [4])
CGGGC | 0.725 ± 0.09 | 1.94 ± 0.065 | 2.01 ± 0.0021 | 0.717 ± 0.016
UCCGA | 0.81 ± 0.1 | 2.12 ± 0.14 | 1.946 ± 0.0097 | 0.6689 ± 0.002
CAGCC | 0.864 ± 0.054 | 2 ± 0.035 | 1.97 ± 0.025 | 0.846 ± 0.13
CGCAA | 0.17 ± 0.043 | 1.888 ± 0.006 | 1.49 ± 0.074 | 0.271 ± 0.06
AGACA | 0.0301 ± 0.062 | 1.87 ± 0.04 | 1.72 ± 0.031 | 0.35727 ± 0.0003
GAACC | 0.828 ± 0.017 | 2 ± 0.024 | 1.87 ± 0.13 | 0.834 ± 0.11
AUAAA | 0.196 ± 0.0089 | 1.99 ± 0.037 | 1.4 ± 0.12 | 0.487 ± 0.033
UUACU | 1.05 ± 0.07 | 2.08 ± 0.052 | 1.93 ± 0.058 | 1.01 ± 0.18
UUACG | 1.08 ± 0.025 | 2.019 ± 0.0074 | 1.93 ± 0.029 | 1.02 ± 0.027
AAACU | 0.552 ± 0.079 | 1.97 ± 0.093 | 1.79 ± 0.033 | 0.604 ± 0.0015
AGUAA | 0.346 ± 0.083 | 1.89 ± 0.12 | 1.35 ± 0.13 | 0.781 ± 0.02
UCUUC |  | 2.03 ± 0.1 | 1.97 ± 0.046 | 
CUGAC | 0.906 ± 0.093 | 1.99 ± 0.056 | 1.99 ± 0.11 | 0.902 ± 0.031
GACGG | 0.642 ± 0.057 | 1.93 ± 0.045 | 1.71 ± 0.11 | 0.887 ± 0.096
AUAUC | 0.978 ± 0.081 | 1.912 ± 0.018 | 1.94 ± 0.048 | 1.06 ± 0.012
GAUUG | 0.498 ± 0.059 | 1.98 ± 0.1 | 1.75 ± 0.12 | 0.711 ± 0.017
GUCCU | 1.16 ± 0.13 | 2.03 ± 0.052 | 2 ± 0.1 | 1.13 ± 0.12
AGAGA | 0.056 ± 0.00013 | 1.952 ± 0.0099 | 1.28 ± 0.092 | 0.603 ± 0.011
AGAGU | 0.387 ± 0.049 | 2.006 ± 0.008 | 1.58 ± 0.045 | 0.442 ± 0.022
CCAAU | 0.688 ± 0.1 | 1.95 ± 0.058 | 1.64 ± 0.14 | 0.7987 ± 0.0017
GUUUG | 0.972 ± 0.24 | 1.96 ± 0.091 | 1.77 ± 0.058 | 0.929 ± 0.17
ACAUU | 1.04 ± 0.16 | 2 ± 0.036 | 1.85 ± 0.042 | 1.15 ± 0.18
CCUCC | 0.993 ± 0.035 | 2.092 ± 0.0026 | 2.0411 ± 0.0014 | 0.89 ± 0.046
UAAAG | 0.272 ± 0.033 | 2.041 ± 0.007 | 1.84 ± 0.11 | 0.497 ± 0.037
UAUUU | 0.892 ± 0.098 | 1.995 ± 0.0037 | 1.94 ± 0.032 | 0.906 ± 0.048

Variant | FACS-Seq fitted mean (log10) (theophylline [1]) | normalized RNA/DNA level with ligand (log10) (theophylline [2]) | normalized RNA/DNA level without ligand (log10) (theophylline [3]) | FACS-Seq fitted mean (log10) (theophylline [4])
UAUUG | 0.752 ± 0.025 | 2.07 ± 0.029 | 1.921 ± 0.017 | 0.768 ± 0.032
UACCA | 0.405 ± 0.01 | 1.9 ± 0.086 | 1.82 ± 0.098 | 0.436 ± 0.11
UGUCU | 0.747 ± 0.19 | 2.02 ± 0.035 | 1.988 ± 0.0094 | 0.783 ± 0.043
AAGGC | 0.518 ± 0.013 | 1.93 ± 0.046 | 1.89 ± 0.079 | 0.476 ± 0.023
CGGUA | 0.028 ± 0.083 | 1.894 ± 0.0076 | 1.3 ± 0.025 | 0.602 ± 0.0084
ACAAC | 0.304 ± 0.051 | 1.97 ± 0.051 | 1.86 ± 0.038 | 0.206 ± 0.062
UACGU | 0.851 ± 0.024 | 2.022 ± 0.012 | 1.92 ± 0.014 | 0.816 ± 0.023
CAAAC | 0.851 ± 0.024 | 1.92 ± 0.024 | 1.82 ± 0.054 | 0.833 ± 0.033
UAGCU | 1.23 ± 0.19 | 2.01 ± 0.048 | 1.93 ± 0.068 | 1.14 ± 0.05
CCAUA | 0.864 ± 0.14 | 1.95 ± 0.036 | 1.5 ± 0.14 | 1.06 ± 0.12
AGGGU | 0.635 ± 0.08 | 2.05 ± 0.073 | 1.74 ± 0.05 | 0.897 ± 0.059
UUCAA |  | 2.08 ± 0.056 | 1.86 ± 0.12 | 
CUGCU | 0.644 ± 0.032 | 1.92 ± 0.082 | 1.86 ± 0.062 | 0.658 ± 0.0024
GAUGC | 0.964 ± 0.13 | 1.98 ± 0.029 | 1.88 ± 0.098 | 1.05 ± 0.072
CUAUC | 1.23 ± 0.19 | 1.89 ± 0.059 | 1.93 ± 0.073 | 1.16 ± 0.078
AACAC | 0.834 ± 0.025 | 1.94 ± 0.048 | 1.91 ± 0.075 | 0.925 ± 0.089
UAGAA | -0.0982 ± 0.13 | 1.91 ± 0.11 | 1.43 ± 0.016 | 0.448 ± 0.028
AUUUA | 0.734 ± 0.078 | 2 ± 0.11 | 1.8 ± 0.08 | 0.834 ± 0.062
AUUUU | 0.213 ± 0.053 | 2.02 ± 0.043 | 1.88 ± 0.062 | 0.194 ± 0.022
CCGUA | 0.864 ± 0.056 | 2 ± 0.099 | 1.65 ± 0.12 | 0.992 ± 0.043
CUCCA | 1.01 ± 0.29 | 2.03 ± 0.048 | 1.87 ± 0.038 | 0.946 ± 0.15
UAUCG | 1.02 ± 0.21 | 2.07 ± 0.028 | 2 ± 0.07 | 0.934 ± 0.064
ACAGG | 0.315 ± 0.055 | 2 ± 0.057 | 1.78 ± 0.045 | 0.357 ± 0.0097
